In paper PMC11077084, “Biochemical characterization of the meiosis-essential yet evolutionarily divergent topoisomerase VIB-like protein MTOPVIB from Arabidopsis thaliana” (Nucleic Acids Research, 2024):

Tests used:
[1] = molecular target: T1, N. equitans Topo VI complex (Topo VIA•Topo VIB) (Nanoarchaeum equitans, UniProt Q74N98); assay: radioisotope-based ATPase assay; also ATP-agarose pulldown; assay type: biochemical; conditions: labelled compound (gamma-32P) in the ATPase assay
T1 construct: gene top6B; codon-optimized Topo VIA and VIB co-expressed from pETDuet in E. coli Rosetta (DE3) pLysS; heat step, Ni-NTA; A2B2 heterotetramer; with Type 2 DNA topoisomerase 6 subunit A
T1 sequence (Q74N98 1-567): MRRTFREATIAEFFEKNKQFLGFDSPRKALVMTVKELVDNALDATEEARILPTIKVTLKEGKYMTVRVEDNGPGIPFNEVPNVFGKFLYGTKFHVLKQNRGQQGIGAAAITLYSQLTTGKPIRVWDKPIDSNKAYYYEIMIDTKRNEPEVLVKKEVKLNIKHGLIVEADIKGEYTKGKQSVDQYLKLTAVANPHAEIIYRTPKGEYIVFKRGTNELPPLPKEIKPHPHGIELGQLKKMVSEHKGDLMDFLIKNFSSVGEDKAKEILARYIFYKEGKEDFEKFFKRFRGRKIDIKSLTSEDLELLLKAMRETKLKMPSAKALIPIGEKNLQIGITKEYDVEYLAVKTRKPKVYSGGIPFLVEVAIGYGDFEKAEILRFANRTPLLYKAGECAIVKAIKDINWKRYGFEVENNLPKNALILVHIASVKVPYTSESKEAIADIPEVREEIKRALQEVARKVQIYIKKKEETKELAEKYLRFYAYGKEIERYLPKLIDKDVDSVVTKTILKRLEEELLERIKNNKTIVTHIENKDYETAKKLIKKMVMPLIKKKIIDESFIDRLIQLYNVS
T1 sequence (Q74M54 1-359 partner): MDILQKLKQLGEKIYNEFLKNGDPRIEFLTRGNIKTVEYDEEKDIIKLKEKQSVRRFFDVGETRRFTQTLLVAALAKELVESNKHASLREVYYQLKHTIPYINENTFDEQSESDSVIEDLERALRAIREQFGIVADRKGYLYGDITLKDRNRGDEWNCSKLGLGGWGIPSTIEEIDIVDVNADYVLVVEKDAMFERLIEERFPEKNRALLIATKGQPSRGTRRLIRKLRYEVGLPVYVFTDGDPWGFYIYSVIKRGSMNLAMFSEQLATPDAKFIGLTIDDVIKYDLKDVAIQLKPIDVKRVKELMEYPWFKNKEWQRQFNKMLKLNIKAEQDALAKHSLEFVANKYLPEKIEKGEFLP

[2] = molecular target: the molecule itself; assay: SEC; purified MBP-tagged MTOPVIB on a Superdex 200 Increase 10/300 GL column calibrated with size standards; without ATP; monomer to dimer
[3] = molecular target: the molecule itself; assay: SEC; Hi-Load Superdex 200 in D buffer without imidazole and glycerol, last step of the purification; monomer to dimer
MTOPVIB = molecular target: T2, MTOPVIB (Arabidopsis thaliana, UniProt Q5Q0E6 1-473); assay: SPR; reaction buffer F, 0.05% Tween 20, 23 C; 1:1 global fit; EMSA: reaction buffer F (composition not in material) + 0.1 mg/ml BSA, 23 C, 30 min, 0.8% agarose-TBE at 4 C (6% PAGE for the competition); SPR: buffer F + 0.05% Tween 20, 23 C; conditions: protein: recombinant; tags: none (His6-MBP removed by PreScission); chain copies: 2; label: 5' biotin on Oligo 1; blunt
T2 sequence: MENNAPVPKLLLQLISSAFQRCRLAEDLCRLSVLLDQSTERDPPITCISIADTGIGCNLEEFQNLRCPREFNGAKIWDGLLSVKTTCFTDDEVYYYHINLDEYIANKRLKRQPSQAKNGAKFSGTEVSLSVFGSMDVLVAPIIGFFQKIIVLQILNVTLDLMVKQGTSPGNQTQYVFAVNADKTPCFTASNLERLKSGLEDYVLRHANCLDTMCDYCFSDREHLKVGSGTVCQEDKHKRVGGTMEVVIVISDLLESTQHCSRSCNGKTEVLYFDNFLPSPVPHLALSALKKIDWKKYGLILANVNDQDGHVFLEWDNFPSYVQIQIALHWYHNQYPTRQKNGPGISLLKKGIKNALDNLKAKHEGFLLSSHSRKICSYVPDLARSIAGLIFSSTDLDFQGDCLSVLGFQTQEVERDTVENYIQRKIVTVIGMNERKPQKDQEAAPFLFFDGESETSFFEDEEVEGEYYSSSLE

## Nc1ncnc2c1ncn2[C@@H]1O[C@H](COP(=O)(O)OP(=O)(O)OP(=O)(O)O)[C@@H](O)[C@H]1O [ATP]
[1]
  radioisotope-based ATPase assay; also ATP-agarose pulldown: unlike the Topo VI complex that hydrolyzed ATP to release

B1: A. thaliana His6-MBP-MTOPVIB (natural protein, UniProt Q5Q0E6 1-473, looked up)
chain: T2 sequence
notes: a PreScission protease site lies between the tag and the protein; Tag not cleaved in the size-exclusion analysis (MBP-tagged MTOPVIB) nor during the amylose step of the complex purification; also called MBP-tagged MTOPVIB; meiotic Topo VIB-like protein; source: High Five insect cells (baculovirus); purified alone (amylose, heparin, Mono Q, Superdex 200), and co-expressed with His6-SPO11-1 and …
[2]
  stoichiometry N: 2

B2: Nanoarchaeum equitans Topo VIB (expressed alone from pET21b) (natural protein, UniProt Q74N98 1-567, looked up)
chain: T1 sequence (Q74N98 1-567)
notes: Topoisomerase VI subunit B, Nanoarchaeum equitans, codon-optimized cDNA in the Nde1 and Xho1 sites of pET21b; The tag is inferred from the vector and the Ni-NTA step; also called N. equitans Topo VIB; source: E. coli Rosetta (DE3) pLysS, purified (Ni-NTA, HiPrep SP XL, Hi-Load Superdex 200)
[3]
  stoichiometry N: 2

B3: 80 bp dsDNA, biotinylated (dsDNA)
DNA 1: TTATGTTCATTTTTTATATCCTTTACTTTATTTTCTCTGTTTATTCATTTACTTATTTTGTATTATCCTTATCTTATTTA
DNA 2: TAAATAAGATAAGGATAATACAAAATAAGTAAATGAATAAACAGAGAAAATAAAGTAAAGGATATAAAAAATGAACATAA
MTOPVIB
  Kd: ~150 nM
